From US20250332297A1, “DLL3-SPECIFIC BINDING CONSTRUCTS AND THEIR USE IN RADIOTHERAPY” (MOLECULAR PARTNERS AG, priority 2024, published 2025)

How the values were obtained:
[1] = biological target: T1, Human DLL3 expressed on cells (HEK293T-hDLL3, NCI-H82, SHP-77, MC38-hDLL3) (human, UniProt Q9NYJ7 27-618); test: flow cytometry titration on HEK293T-hDLL3 cells, without HSA
T1 construct: also called DLL3 endogenously expressed on human cells
T1 sequence: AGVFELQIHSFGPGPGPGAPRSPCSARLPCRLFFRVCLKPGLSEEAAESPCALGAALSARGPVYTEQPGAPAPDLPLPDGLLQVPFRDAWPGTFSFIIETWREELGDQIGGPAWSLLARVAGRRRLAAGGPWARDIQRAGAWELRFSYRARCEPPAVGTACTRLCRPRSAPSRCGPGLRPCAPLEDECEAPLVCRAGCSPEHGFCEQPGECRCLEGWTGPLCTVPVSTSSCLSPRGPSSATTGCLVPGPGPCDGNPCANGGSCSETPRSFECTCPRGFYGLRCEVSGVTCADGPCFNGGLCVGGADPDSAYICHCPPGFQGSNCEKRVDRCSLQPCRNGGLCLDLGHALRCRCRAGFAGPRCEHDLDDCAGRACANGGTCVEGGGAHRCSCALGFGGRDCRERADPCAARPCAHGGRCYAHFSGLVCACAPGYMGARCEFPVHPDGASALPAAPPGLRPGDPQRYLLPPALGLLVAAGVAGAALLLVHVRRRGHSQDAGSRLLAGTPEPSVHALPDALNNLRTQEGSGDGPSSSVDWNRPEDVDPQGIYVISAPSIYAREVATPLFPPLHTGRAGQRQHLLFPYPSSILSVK
Protocol: (§1) Cell binding titration assays were performed for selected His-tagged single domain (1 D) and two domain (2D) designed ankyrin repeat proteins to determine binding to human DLL3 expressed on HEK293T-huDLL3 cells in absence and presence of human serum albumin. […] HEK293T-hDLL3 cells are HEK293T cells that were stably transfected to express human DLL3 on their surface.
(§2) In brief, 1×10⁵ cells/well were resuspended in 100 μl DARPin dilution (500 nM, 1:5 serial diluted) and incubated for 1 h at 4° C. Cells were washed twice with PBS and resuspended in 100 μl anti-DARPin antibody (rabbit anti-DARPin 1.4.8) and LIVE/DEAD fixable cell stain (1:1000, Thermo Fisher #L34957). This step was performed in absence and presence of […] Human Serum Albumin (CSL Behring #150570). After incubation and washing, cells were incubated with detection antibody for 30 minutes (Goat […] IgG (H+L), AF647, Thermo Fisher #21445). Cells were fixed (Paraformaldehyde Solution, LucernaChem) and acquired at Attune N×T (Thermo Life Technologies). Raw fcs files were exported and analyzed using FlowJo software. MFI values of live AF647-positive cells were exported from FlowJo and plotted using GraphPad Prism software.

NCI-H82 tumors = test: Efficacy (tumor growth) in NCI-H82 tumor model; type: in vivo, mouse; conditions: Dunnett's multiple comparisons test, tumor volume in mm^3, NCI-H82, R2G2 mice
Protocol: To determine the efficacy of radio-labelled (Pb-212) DARPin (MAM279) conjugate in inhibiting the growth of tumors that express DLL3, different dose regimens (single or repeated dose) of the conjugate were tested in a relevant mouse tumor model (NCI-H82).
Animals were under observation daily and 3× per week tumors were measured by caliper. Animals were sacrificed when tumors reached 1500 to 2000 mm^3 or if termination criteria were met. The data were expressed as average+/−SEM of tumor volume in mm^3.
To determine the efficacy of more frequent repeat-dosing of radio-labelled (Pb-212) DARPin (MAM279) conjugate in inhibiting the growth of tumors that express DLL3, a weekly repeat-dosing regimen of the conjugate was tested in a relevant mouse tumor model (NCI-H82).
Corresponding injections of buffer only were done as control. The first weekly injection of radio-labeled molecules was done 14 days after xenografting the NCI-H82 cells. Animals were under observation daily and 3× per week tumors were measured by caliper. Animals were sacrificed when tumors reached 1500 to 2000 mm^3 or if termination criteria were met. The data were expressed as average+/−SEM of tumor volume in mm^3. Results are shown in FIGS. 20A to 20D and Table 23.

[2] = biological target: T1, Human DLL3 expressed on cells …; test: flow cytometry titration on HEK293T-hDLL3 cells, with HSA
Protocol: as §1, §2

NCI-H82 tumor model = test: Biodistribution of radio-labelled DARPin conjugates in NCI-H82 tumor model; conditions: mouse, in vivo, iv, 0.01 mg/kg
Protocol: NCI-H82 tumor model. R2G2 mice were purchased from Envigo. All studies were conducted under the approval of the institutional IACUC committee. Animals were maintained under specific-pathogen-free (SPF) conditions with daily cycles of light and darkness (12 h/12 h), in line with ethical guidelines. No manipulations were performed during the first 5 days after arrival, to allow the animals to acclimatize to the new environment. All mice were monitored daily for assessment of physical condition and general well-being. NCI-H82 cells were purchased from ATCC (Catalog No. HTB-175). Solid xenografts were established by subcutaneous (SQ) injection of NCI-H82 cells in RPMI media mixed 1:1 with Corning® Matrigel® basement membrane matrix (GFR; Corning, Cat No 354230.). Cells were quantified using Countess cell counter. Each mouse was injected SQ with 5×10^6 NCI-H82 cells in 100 μL RPMI/GFR-Matrigel into the right flank of each mouse. Tumor volumes were estimated three times per week through calipering, according to the formula: volume=0.5×length×width^2 and grown until they reached 200-300 mm^3. Tumor-associated antigen level expressed in tumors, tumor vascularization profile and DLL3 soluble form in mouse serum was tested.
Biodistribution study. […] Radio-labeled (Pb-212) DARPin conjugates were then injected at 0.01 mg/kg (10 μCi DARPin conjugates) into the tail vein of R2G2 mice (females) xenografted subcutaneously (at age of about 7 weeks) with NCI-H82 cells (5 million cells, growth factor reduced Matrigel) and bearing tumors (5-10 mm in diameter). […] Biodistribution was monitored at 4 h and 24h post-injection. Mice were euthanized by CO2 inhalation and cervical dislocation. Blood, spleen, kidneys, liver and tumor were extracted, weighed and the radioactivity was determined with a γ-counter counter (such as Wizard^22470, Perkin Elmer). The data were expressed as the % injected dose/gram (% ID/g).
Radio-labeled (Pb-212) DARPin conjugates were then injected at 0.01 mg/kg (10 μCi DARPin conjugates) into the tail vein of R2G2 mice (females) xenografted subcutaneously (at age of about 7 weeks) with NCI-H82 cells (5 million cells, growth factor reduced Matrigel) and bearing tumors (5-10 mm in diameter). Biodistribution was monitored at 4 h and 24h post-injection. Mice were euthanized by CO2 inhalation and cervical dislocation. Kidneys and tumor were extracted, weighed and the radioactivity was determined with a γ-counter counter (such as Wizard^22470, Perkin Elmer). The data were expressed as the % injected dose/gram (% ID/g) and the tumor to kidney (T:K) ratio was determined.
Radio-labelled (Pb-212) DARPin conjugates were then injected at 0.01 mg/kg (10 μCi DARPin conjugates) (i) into the tail vein of R2G2 mice (females) xenografted subcutaneously (at age of about 7 weeks) with NCI-H82 cells (5 million cells, growth factor reduced Matrigel) and bearing tumors (5-10 mm in diameter), and (ii) into the tail vein of athymic nude mice (females) xenografted subcutaneously (at age of about 7 weeks) with hDLL3-MC38 cells (5 million cells, growth factor reduced Matrigel) and bearing tumors (5-10 mm in diameter). Biodistribution was monitored at 4 h and 24h post-injection. Mice were euthanized by CO2 inhalation and cervical dislocation. Blood, bladder, small intestine, colon, spleen, kidneys, liver, lung, heart, tail and tumor were extracted, weighed and the radioactivity was determined with a γ-counter (such as Wizard^22470, Perkin Elmer). The data were expressed as the % injected dose/gram (% ID/g).

B1: Non-binding DARPin control comprising SEQ ID NO: 21 (designed binder)
chain: DLGKKLLEAARAGQDDEVRELLKAGADVNAKDKDGYTPLHLAAREGHLEIVEVLLKAGADVNAKDKDGYTPLHLAAREGHLEIVEVLLKAGADVNAQDKSGKTPADLAADAGHEDIAEVLQKAA
notes: Negative control on HEK293T-hDLL3 cells
binding result [1]: no binding (tested: 500 nM)

B2: Rova conjugate: Rova antibody conjugated with chelator (DOTAM) and labeled with Pb-212, used as control molecule (conjugate, chains of the INN, looked up)
VH: QVQLVQSGAEVKKPGASVKVSCKASGYTFTNYGMNWVRQAPGQGLEWMGWINTYTGEPTYADDFKGRVTMTTDTSTSTAYMELRSLRSDDTAVYYCARIGDSSPSDYWGQGTLVTVSS
VL: EIVMTQSPATLSVSPGERATLSCKASQSVSNDVVWYQQKPGQAPRLLIYYASNRYTGIPARFSGSGSGTEFTLTISSLQSEDFAVYYCQQDYTSPWTFGQGTKLEIK
modifications: DOTAM chelator, 212Pb radiolabel
notes: Rova antibody conjugated with chelator (DOTAM) and labeled with Pb-212, used as control molecule
Mean Diff. (NCI-H82 tumors; Buffer vs. conjugate (1 × 10μCi)): 119.6
Mean Diff. (NCI-H82 tumors; Buffer vs. conjugate (4 × 10μCi, injections 2 weeks apart)): 256.3

B3: neg. control: negative control DARPin (SEQ ID NO: 26), DLL3-specific domain replaced with non-binding domain, DOTAM-conjugated, Pb-212 labelled (conjugate)
chain: GSDLGKKLLEAARAGQDDEVRELLKAGADVNAKDYFSHTPLHLAARNGHLKIVEVLLKAGADVNAKDFAGKTPLHLAADAGHLEIVEVLLKAGADVNAQDIFGKTPADIAADAGHEDIAEVLQKAAGSPTPTPTTPTPTPTTPTPTPTGSDLGKKLLEAARAGQDDEVRELLKAGADVNAKDKDGYTPLHLAAREGHLEIVEVLLKAGADVNAKDKDGYTPLHLAAREGHLEIVEVLLKAGADVNAQDKSGKTPADLAADAGHEDIAEVLQKAAGSGSC
modifications: DOTAM conjugate, Pb-212 label; Ankyrin repeat protein (control)
Mean Diff. (NCI-H82 tumors; Buffer only vs. (4 × 10μCi, 1 wk)): −64.44

B4: MAM088 (single domain ankyrin repeat protein, His-tagged) (designed binder)
chain: DLGKKLLAAAREGQDDEVRELLKAGADVNAKDIWGQTPLHIAAWFGHLEIVEVLLKAGADVNAKDQTGHTPLHLAAKFGHLEIVEVLLKAGADVNAQDLLGRTPADLAAEEGHEDIAEVLQKAA
notes: also called 1D DARPin; not shown: His-tag
EC50 [1]: 5 nM
EC50 [2]: 5.1 nM

B5: MAM112 (single domain ankyrin repeat protein, His-tagged) (designed binder)
chain: DLGKKLLAAAADGQDDEVRELLQAGADVNAKDLFGYTPLHLAAWRGHLEIVEVLLEAGADVNAKDAAGETPLHLAAWFGHLEIVEVLLEAGADVNAQDVQGKTPADLAAKEGHEDIAEVLQQAA
notes: as for B4
EC50 [1]: 4.2 nM
EC50 [2]: 4.6 nM

B6: MAM120: Ankyrin repeat domain specific for DLL3 (SEQ ID NO: 4); single domain (1D) DARPin (protein)
chain: DLGTKLLSAAADGQDDEVRELLQAGADVNAKDLFGYTPLHLAAWRGHLEIVEVLLEAGADVNAKDAAGLTPLHLAAWFGHLEIVEVLLEAGADVNAQDVQGVTPADLAAKEGHEDIAEVLQQAA
modifications: Ankyrin repeat domain specific for DLL3 (MAM120)
Blood % ID/g (NCI-H82 tumor model; 4 h): 0.1 % ID/g
Kidneys % ID/g (NCI-H82 tumor model; 4 h): 65.5 % ID/g
Tumors % ID/g (NCI-H82 tumor model; 4 h): 2.6 % ID/g
Blood % ID/g (NCI-H82 tumor model; 24 h): 0.1 % ID/g
Kidneys % ID/g (NCI-H82 tumor model; 24 h): 47.3 % ID/g
Tumors % ID/g (NCI-H82 tumor model; 24 h): 2.9 % ID/g

B7: MAM093 (single domain ankyrin repeat protein, His-tagged) (designed binder)
chain: DLGKKLLAAAAQGQDDEVRELLKAGANVNAKDLFGYTPLHLAAWRGHLEIVEVLLKAGADVNAKDAAGETPLHLAAWFGHLEIVEVLLKAGADVNAQDLQGKTPADLAAKEGHEDIAEVLQKAA
notes: as for B4
EC50 [1]: 4.9 nM
EC50 [2]: 5.5 nM

B8: MAM120 (single domain ankyrin repeat protein, His-tagged) (designed binder)
chain: DLGTKLLSAAADGQDDEVRELLQAGADVNAKDLFGYTPLHLAAWRGHLEIVEVLLEAGADVNAKDAAGLTPLHLAAWFGHLEIVEVLLEAGADVNAQDVQGVTPADLAAKEGHEDIAEVLQQAA
notes: as for B4
EC50 [1]: 7 nM
EC50 [2]: 8 nM
